Results: patent publication US20230303708A1

Biological target: hBCMA-41BB-CD3 CAR (CAR-PMC750)
Assay: FACS of CAR-T cells stained with biotinylated goat anti-mouse F(ab)'2 and PE-streptavidin, day 9 of expansion

Chain of hBCMA-41BB-CD3 CAR (CAR-PMC750) (chain, as listed by the source): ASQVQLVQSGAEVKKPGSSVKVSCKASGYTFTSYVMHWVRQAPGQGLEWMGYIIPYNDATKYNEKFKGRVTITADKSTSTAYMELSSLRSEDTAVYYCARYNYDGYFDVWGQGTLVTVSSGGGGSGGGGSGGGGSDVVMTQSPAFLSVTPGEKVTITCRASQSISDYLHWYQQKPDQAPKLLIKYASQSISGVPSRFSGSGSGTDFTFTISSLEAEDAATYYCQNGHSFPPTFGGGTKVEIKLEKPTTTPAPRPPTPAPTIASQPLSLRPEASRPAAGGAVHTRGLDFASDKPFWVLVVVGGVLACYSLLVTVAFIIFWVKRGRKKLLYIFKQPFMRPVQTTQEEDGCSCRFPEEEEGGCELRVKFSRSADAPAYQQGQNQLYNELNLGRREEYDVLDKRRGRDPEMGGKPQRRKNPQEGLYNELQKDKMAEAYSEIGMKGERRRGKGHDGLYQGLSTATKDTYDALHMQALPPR

biotin-conjugated goat anti-mouse F(ab)'2 (antibody)
percent CAR-positive cells: > 70%
